In patent US20220251167A1 (published 2022):

Biological target: T1, DNAJB1-PRKACA fusion protein peptide on HLA-A*68:02 (human)
T1 peptide: EIFDRYGEEV
Test: multimer staining
Source text: Jurkat cells were engineered to express the FLC-P8R-4 TCR.

B1: P9R-4 (TCR)
alpha TRAV16*01 TRAJ4*01 CDR3: CALDMFSGGYNKLIF
beta TRBV15*01 TRBJ2-7*01 CDR3: CATSRVKTSGGYEQYF
B1: recognises.
